Reference: US20250195637A1

Experiments:
[1] = target: Wild-type F protein from the hMPV strain rC-85473 (human metapneumovirus (hMPV), strain rC-85473) (UniProt Q6WB98); experiment: flow cytometry, HMPV24-A647 on LLC-MK2 cells infected with rC-85473
[2] = target: Wild-type F protein from the hMPV strain rC-85473 (human metapneumovirus (hMPV), strain rC-85473) (UniProt Q6WB98); experiment: flow cytometry, HMPV24-A647 on LLC-MK2 cells infected with Bivalent Metavac®-RSV v.1
[3] = target: Wild-type F protein from the hMPV strain rC-85473 (human metapneumovirus (hMPV), strain rC-85473) (UniProt Q6WB98); experiment: flow cytometry, HMPV24-A647 on LLC-MK2 cells infected with Bivalent Metavac®-RSV v.2
[4] = target: Wild-type F protein from the hMPV strain rC-85473 (human metapneumovirus (hMPV), strain rC-85473) (UniProt Q6WB98); experiment: flow cytometry, HMPV24-A647 on LLC-MK2 cells infected with Bivalent Metavac®-RSV v.3
[5] = target: F RSV v.1, native (wild-type) F protein of hRSV, RSV A2 strain (human respiratory syncytial virus (hRSV), RSV A2 strain) (UniProt P03420); experiment: flow cytometry, Palivizumab-PE on LLC-MK2 cells infected with Bivalent Metavac®-RSV v.1
[6] = target: F RSV v.2, mutated F protein from hRSV corresponding to the stabilized prefusion state (human respiratory syncytial virus (hRSV), RSV A2 strain, mutated) (UniProt P03420); experiment: flow cytometry, Palivizumab-PE on LLC-MK2 cells infected with Bivalent Metavac®-RSV v.2
[7] = target: F RSV v.3, chimeric HMPV/RSV stabilized F pre-fusion form (mutated extracellular domain of F protein from hRSV with transmembrane and cytoplasmic domains of F protein from hMPV C-85473) (chimera of hRSV (RSV A2 strain, mutated) and hMPV (C-85473)); experiment: flow cytometry, Palivizumab-PE on LLC-MK2 cells infected with Bivalent Metavac®-RSV v.3

Question: “Monoclonal mouse antibody detecting the F HMPV protein (MAb HMPV24 BioRad MCA 4674)” was tested. Which Infected cells expressing HMPV-F [%, GFP and A647 positive cells] [1] did it give?
Answer: The Infected cells expressing HMPV-F [%, GFP and A647 positive cells] was 98.9%.

Question: What about the Infected cells expressing HMPV-F [%, GFP and A647 positive cells] [2] of the same substance?
Answer: The Infected cells expressing HMPV-F [%, GFP and A647 positive cells] was 94.8%.

Question: What about the Infected cells expressing HMPV-F [%, GFP and A647 positive cells] [3] of the same substance?
Answer: Its Infected cells expressing HMPV-F [%, GFP and A647 positive cells] is 94.8%.

Question: What about the Infected cells expressing HMPV-F [%, GFP and A647 positive cells] [4] of the same substance?
Answer: Its Infected cells expressing HMPV-F [%, GFP and A647 positive cells] is 85.2%.

Question: “Palivizumab Synagis® AstraZeneca, monoclonal humanized antibody detecting both pre-fusion and post-fusion forms of the F RSV protein” was tested. Which Infected cells expressing RSV-F [%, GFP and PE positive cells] [5] did it give?
Answer: The Infected cells expressing RSV-F [%, GFP and PE positive cells] was 65.5%.

Question: And the Infected cells expressing RSV-F [%, GFP and PE positive cells] [6]?
Answer: The Infected cells expressing RSV-F [%, GFP and PE positive cells] was 54.6%.

Question: What about the Infected cells expressing RSV-F [%, GFP and PE positive cells] [7] of the same substance?
Answer: Its Infected cells expressing RSV-F [%, GFP and PE positive cells] is 47.2%.
